Usually Kd stands for a measure of binding affinity in units of concentration. Lower therefore signals higher affinity. The EC50 is the concentration at which the effect is half-maximal.

One assay addresses human FcγRIIb (human) (UniProt P31994). The experiment in a line: SPR.
The target of assay [1] is human Clever-1 on cells and in tissue (Homo sapiens, UniProt Q9NY15). Kind of assay: flow cytometry on cells. On the technique in general: Flow cytometry measures light scatter and fluorescence of single cells or particles in a stream.
Chain of human Clever-1 on cells and in tissue (Q9NY15 26-2570): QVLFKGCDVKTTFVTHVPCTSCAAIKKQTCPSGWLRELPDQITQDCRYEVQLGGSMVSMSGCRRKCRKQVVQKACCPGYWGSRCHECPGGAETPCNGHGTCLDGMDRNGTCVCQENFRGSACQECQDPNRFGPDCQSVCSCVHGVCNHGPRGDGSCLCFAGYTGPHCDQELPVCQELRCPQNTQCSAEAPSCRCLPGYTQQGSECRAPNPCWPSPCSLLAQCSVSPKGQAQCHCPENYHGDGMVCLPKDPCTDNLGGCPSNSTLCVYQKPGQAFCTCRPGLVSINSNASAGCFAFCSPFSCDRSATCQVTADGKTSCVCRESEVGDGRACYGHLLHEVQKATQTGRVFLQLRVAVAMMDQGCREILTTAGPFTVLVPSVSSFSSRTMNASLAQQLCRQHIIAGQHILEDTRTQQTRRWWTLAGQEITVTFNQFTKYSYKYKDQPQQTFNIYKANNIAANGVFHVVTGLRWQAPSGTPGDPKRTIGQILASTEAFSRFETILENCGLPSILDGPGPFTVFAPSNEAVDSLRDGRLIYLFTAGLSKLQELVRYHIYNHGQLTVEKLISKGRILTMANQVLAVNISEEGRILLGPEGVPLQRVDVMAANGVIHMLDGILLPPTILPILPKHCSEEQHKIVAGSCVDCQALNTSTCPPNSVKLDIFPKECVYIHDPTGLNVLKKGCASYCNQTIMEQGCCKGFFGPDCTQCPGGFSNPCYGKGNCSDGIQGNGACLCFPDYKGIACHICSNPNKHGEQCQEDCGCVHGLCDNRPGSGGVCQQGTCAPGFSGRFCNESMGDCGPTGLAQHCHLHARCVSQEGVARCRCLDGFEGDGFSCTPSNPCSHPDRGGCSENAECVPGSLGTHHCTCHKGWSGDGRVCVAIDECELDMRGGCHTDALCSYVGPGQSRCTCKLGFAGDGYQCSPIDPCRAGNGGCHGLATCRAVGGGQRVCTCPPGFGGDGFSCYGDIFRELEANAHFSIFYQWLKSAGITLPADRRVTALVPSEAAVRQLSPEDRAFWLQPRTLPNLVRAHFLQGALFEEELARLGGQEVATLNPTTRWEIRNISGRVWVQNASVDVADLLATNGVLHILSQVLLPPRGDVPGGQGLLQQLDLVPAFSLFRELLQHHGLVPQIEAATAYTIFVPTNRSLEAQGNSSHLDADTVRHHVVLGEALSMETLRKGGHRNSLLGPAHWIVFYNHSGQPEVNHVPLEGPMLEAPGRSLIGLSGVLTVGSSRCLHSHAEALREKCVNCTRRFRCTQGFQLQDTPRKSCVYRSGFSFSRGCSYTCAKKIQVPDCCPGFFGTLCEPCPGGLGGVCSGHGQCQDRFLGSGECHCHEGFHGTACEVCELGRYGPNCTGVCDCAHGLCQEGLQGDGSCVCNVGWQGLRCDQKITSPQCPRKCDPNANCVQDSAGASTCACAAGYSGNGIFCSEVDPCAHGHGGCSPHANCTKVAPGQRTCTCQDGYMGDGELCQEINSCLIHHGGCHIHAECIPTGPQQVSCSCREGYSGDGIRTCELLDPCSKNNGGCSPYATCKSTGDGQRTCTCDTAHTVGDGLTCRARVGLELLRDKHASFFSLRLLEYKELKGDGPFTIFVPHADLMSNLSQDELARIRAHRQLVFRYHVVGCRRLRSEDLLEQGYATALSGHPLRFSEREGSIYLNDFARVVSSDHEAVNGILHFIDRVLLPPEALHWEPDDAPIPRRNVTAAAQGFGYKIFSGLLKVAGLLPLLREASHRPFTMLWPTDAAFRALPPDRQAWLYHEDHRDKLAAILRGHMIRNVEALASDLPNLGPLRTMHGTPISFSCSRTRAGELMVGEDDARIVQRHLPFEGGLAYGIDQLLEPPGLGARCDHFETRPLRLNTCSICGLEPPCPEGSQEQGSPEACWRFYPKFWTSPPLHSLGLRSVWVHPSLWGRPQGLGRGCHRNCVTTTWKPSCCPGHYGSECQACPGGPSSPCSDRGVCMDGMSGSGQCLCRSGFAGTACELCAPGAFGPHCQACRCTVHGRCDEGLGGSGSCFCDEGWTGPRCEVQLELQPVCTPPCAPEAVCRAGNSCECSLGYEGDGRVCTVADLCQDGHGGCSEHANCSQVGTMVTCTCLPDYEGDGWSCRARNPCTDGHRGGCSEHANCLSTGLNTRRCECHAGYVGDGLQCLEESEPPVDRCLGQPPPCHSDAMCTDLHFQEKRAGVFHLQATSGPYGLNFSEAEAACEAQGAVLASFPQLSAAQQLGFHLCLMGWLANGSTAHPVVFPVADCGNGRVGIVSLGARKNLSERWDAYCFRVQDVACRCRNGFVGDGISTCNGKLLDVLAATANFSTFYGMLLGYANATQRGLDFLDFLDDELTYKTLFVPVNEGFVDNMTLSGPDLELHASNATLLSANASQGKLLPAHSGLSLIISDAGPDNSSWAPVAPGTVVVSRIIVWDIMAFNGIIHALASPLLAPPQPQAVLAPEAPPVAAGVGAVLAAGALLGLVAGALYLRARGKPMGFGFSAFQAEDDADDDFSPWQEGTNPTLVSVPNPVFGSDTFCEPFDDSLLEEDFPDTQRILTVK
The target of a further assay is purified human Clever-1 (Homo sapiens, UniProt Q9NY15). Kind of assay: SPR. A general note: In SPR one partner is held on a chip, and binding of the other changes the refractive index at the surface.
Chain of purified human Clever-1 (Q9NY15 26-2570): as above
The target in assay [2] is purified cynomolgus Clever-1 (Macaca fascicularis, UniProt A0A2K5VS84). Kind of assay: SPR.

Chain of human FcγRIIb (human) (P31994 43-310): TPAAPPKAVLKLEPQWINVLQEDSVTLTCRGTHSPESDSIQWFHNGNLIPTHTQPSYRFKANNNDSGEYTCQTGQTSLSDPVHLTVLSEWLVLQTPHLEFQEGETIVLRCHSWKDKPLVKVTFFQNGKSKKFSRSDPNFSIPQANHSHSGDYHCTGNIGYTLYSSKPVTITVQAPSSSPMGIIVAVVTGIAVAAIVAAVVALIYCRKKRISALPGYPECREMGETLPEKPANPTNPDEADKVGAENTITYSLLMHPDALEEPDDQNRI

Regarding rituximab (antibody), in the assay with human FcγRIIb (human), the Kd came out at 5130 nM. Regarding bexmarilimab (antibody), in the assay with human FcγRIIb (human), the Kd came to 11400 nM.

B1: bexmarilimab (antibody, V domains shown)
VH: QVTLKESGPTLVKPTQTLTLTCSFSGFSLSTSGMGIGWIRQPPGKALEWLAHIWWDDDKRYNPALKSRLTISKDTSKNQVVLTMTNMDPVDTATYYCARHYGYDPYYAMDYWGQGTLVTVSS
VL: EIVLTQSPGTLSLSPGERATLSCTASSSVSSSYLHWYQQKPGKAPKLLIYRTSNLASGVPSRFSGSGSGTDYTLTISSLQPEDFATYYCHQYHRSPPTFGQGTKLEIK
Consider B1, for which the EC50 in assay [1] came to 2.2 nM. Also, the dissociation constant Kd is 0.75 nM with purified human Clever-1 and 0.92 nM in assay [2].

The values are drawn from publication PMC9377746 (Molecular Cancer Therapeutics, 2022).
